T1: human LAG3-mFc (human, UniProt P18627 23-450, limits assumed)
T1 construct: not shown: mouse IgG Fc (mFc)
T1 sequence (looked up): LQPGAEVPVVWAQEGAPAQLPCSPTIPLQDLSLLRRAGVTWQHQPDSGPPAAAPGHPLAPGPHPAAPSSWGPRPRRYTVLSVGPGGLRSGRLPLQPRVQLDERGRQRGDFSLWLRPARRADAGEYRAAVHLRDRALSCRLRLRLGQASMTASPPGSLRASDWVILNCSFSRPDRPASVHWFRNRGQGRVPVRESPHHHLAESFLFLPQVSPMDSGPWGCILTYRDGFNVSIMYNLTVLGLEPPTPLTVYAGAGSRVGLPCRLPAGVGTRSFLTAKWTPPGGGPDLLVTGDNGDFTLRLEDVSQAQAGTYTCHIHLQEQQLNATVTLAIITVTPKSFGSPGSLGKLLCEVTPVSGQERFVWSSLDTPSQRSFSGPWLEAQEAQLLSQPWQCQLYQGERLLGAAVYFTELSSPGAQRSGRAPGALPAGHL


Assays:
human PD-1-mFc = target: T2, human PD-1-mFc (human, UniProt Q15116 25-170, limits assumed); test: indirect ELISA, coated human PD-1-mFc
T2 construct: not shown: mouse IgG Fc (mFc)
Procedure: Then the ELISA plate coated with the antigen was washed once with PBST and then blocked with a PBS solution containing 1% BSA as a blocking solution at 37° C. for 2 h. After blocking, the ELISA plate was washed 3 times with PBST. The ELISA plate containing the test antibodies was incubated at 37° C. for 30 min and then washed 3 times with PBST.
(§1) After incubation, the plate was washed 4 times with PBST, TMB (Neogen, 308177) was added for chromogenesis in the dark for 5 min, and then a stop solution was added to terminate the chromogenic reaction. The ELISA plate was put into an ELISA plate reader immediately, and the OD value of each well in the ELISA plate was read at 450 nm. The data were analyzed and processed by SoftMax Pro 6.2.1.

human PD-1-mFc-Biotin = target: T3, human PD-1-mFc-Biotin (human, UniProt Q15116 25-170, limits assumed, biotin label (site not stated)); test: competitive ELISA, blocking of PD-1-mFc-Biotin binding to coated human PDL1-mFc
T3 construct: not shown: mouse IgG Fc (mFc)
Procedure: After incubation, the ELISA plate was blocked with a PBS solution containing 1% BSA at 37° C. for 2 h. After blocking, the plate was washed three times and dried. The antibody was serially diluted on a dilution plate in a 3-fold dilution ratio to achieve 7 concentrations with 80 nM as the starting concentration (at a final concentration of 40 nM), and a blank control was set. […] Then the mixture was incubated at room temperature for 10 min. Then the mixture after reaction was added to the coated ELISA plate, and the ELISA plate was incubated at 37° C. for 30 min. After incubation, the plate was washed three times with PBST and dried. An SA-HRP (KPL, 14-30-00) working solution was added, and the plate was incubated at 37° C. for 30 min. After incubation, the plate was washed four times and dried. Then TMB (Neogen, 308177) was added in the dark for chromogenesis for 5 min, and then a stop solution was added to terminate the chromogenic reaction. The ELISA plate was put into an ELISA plate reader immediately, and the OD value of each well in the ELISA plate was read at 450 nm. The data were analyzed and processed by SoftMax Pro 6.2.1.

human LAG3-mFc = target: T1, human LAG3-mFc; test: indirect ELISA, coated human LAG3-mFc
Procedure: as §1, with “Then the ELISA plate coated with the antigen was washed once with PBST and then blocked with a PBS solution containing 1% BSA as a blocking solution at 37° C. for 2 h. After blocking, the ELISA plate was washed 3 times with PBST. The ELISA plate containing the test antibodies was incubated at 37° C. for 30 min and then washed 3 times with PBST. […] After” for “After”

[1] = target: T4, PD-1 on 293T-PD1 membrane surface (full-length human PD-1 on cells) (human, UniProt Q15116 25-288); test: flow cytometry on 293T-PD1 cells
T4 construct: whole, on cells; the Promega PD-1 effector cells are bought; also called CHO-K1-PD1 cells
Procedure: 100 μL of 1% PBSA was then added to each well, and the mixture was centrifuged at 350×g for 5 min, followed by removal of the supernatant. […] The mixture was mixed gently and uniformly, and then incubated on ice for 1 h. 100 μL of 1% PBSA was added to each well, and the mixture was centrifuged at 350×g for 5 min, followed by removal of the supernatant. Then the plate was washed twice with 200 μL of 1% PBSA. […] The mixture was mixed well and then incubated on ice in the dark for 0.5 h. 100 μL of 1% PBSA was added to each well, and the mixture was centrifuged at 350×g for 5 min, followed by removal of the supernatant. Then the plate was washed twice with 200 μL of 1% PBSA. 400 μL of 1% PBSA was added to each well to resuspend the cell pellets, and the mixture was transferred to a flow cytometry tube for FACSCalibur assay.

[2] = target: T4, PD-1 on 293T-PD1 membrane surface …; test: competitive flow cytometry on 293T-PD1 cells, competitor PDL-1-mFc 20 nM
Procedure: 1. […] 100 μL of 1% PBSA was then added to each well, and the mixture was centrifuged and washed. […] 100 μL of a 400-fold diluted FITC goat anti-mouse IgG/IgM antibody (BD, Cat. No. 555988) was added, while 100 μL of 1% PBSA was added for a blank sample. The mixture was mixed well, incubated on ice in the dark for 30 min, washed, and centrifuged. The cells were resuspended and then transferred to a sample loading tube for testing on a flow cytometer.

T2 sequence (Q15116 25-170 limits assumed): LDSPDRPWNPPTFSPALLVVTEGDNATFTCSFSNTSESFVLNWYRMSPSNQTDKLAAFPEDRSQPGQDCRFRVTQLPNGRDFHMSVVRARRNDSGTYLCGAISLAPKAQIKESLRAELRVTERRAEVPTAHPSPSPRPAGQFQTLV
T3 sequence (Q15116 25-170 limits assumed): as above
T4 sequence (Q15116 25-288): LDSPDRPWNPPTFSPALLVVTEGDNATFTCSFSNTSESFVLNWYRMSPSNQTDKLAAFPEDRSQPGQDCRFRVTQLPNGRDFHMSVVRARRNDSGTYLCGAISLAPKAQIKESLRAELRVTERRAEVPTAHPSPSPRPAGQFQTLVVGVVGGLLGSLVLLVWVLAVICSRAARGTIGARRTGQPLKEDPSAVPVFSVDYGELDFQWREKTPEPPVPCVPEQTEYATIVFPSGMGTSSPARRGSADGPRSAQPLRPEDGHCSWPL

Row | Binder | EC50 (human PD-1-mFc) | EC50 (human PD-1-mFc-Biotin) | EC50 (human LAG3-mFc) | EC50 [1] | EC50 [2]
1 | BS-PL023C (bispecific antibody, human IgG1, kappa, Morrison form (IgG-scFv): an scFv at the C-terminus of each of the two heavy chains) heavy: not shown light: DIQMTQSPSSMSASVGDRVTFTCRASQDINTYLSWFQQKPGKSPKTLIYRANRLVSGVPSRFSGSGSGQDYTLTISSLQPEDMATYYCLQYDEFPLTFGAGTKLELKRTVAAPSVFIFPPSDEQLKSGTASVVCLLNNFYPREAKVQWKVDNALQSGNSQESVTEQDSKDSTYSLSSTLTLSKADYEKHKVYACEVTHQGLSSPVTKSFNRGEC | 0.046 nM | 2.98 nM | 0.377 nM |  | 
2 | Bs-PLV02 (bispecific antibody, human IgG4 S228P, kappa, F234A L235A, Morrison form (IgG-scFv): an scFv at the C-terminus of each of the two heavy chains) heavy: not shown light: DIQMTQSPSSMSASVGDRVTFTCRASQDINTYLSWFQQKPGKSPKTLIYRANRLVSGVPSRFSGSGSGQDYTLTISSLQPEDMATYYCLQYDEFPLTFGAGTKLELKRTVAAPSVFIFPPSDEQLKSGTASVVCLLNNFYPREAKVQWKVDNALQSGNSQESVTEQDSKDSTYSLSSTLTLSKADYEKHKVYACEVTHQGLSSPVTKSFNRGEC | 0.103 nM | 5.04 nM | 0.685 nM | 6.87 nM | 
3 | 14C12H1L1(hG1TM) (antibody, human IgG1, kappa, V domains shown, Humanized anti-PD-1 IgG1 with L234A, L235A, G237A (EU numbering)) VH: EVQLVESGGGLVQPGGSLRLSCAASGFAFSSYDMSWVRQAPGKGLDWVATISGGGRYTYYPDSVKGRFTISRDNSKNNLYLQMNSLRAEDTALYYCANRYGEAWFAYWGQGTLVTVSS VL: DIQMTQSPSSMSASVGDRVTFTCRASQDINTYLSWFQQKPGKSPKTLIYRANRLVSGVPSRFSGSGSGQDYTLTISSLQPEDMATYYCLQYDEFPLTFGAGTKLELKR | 0.02 nM | 2.61 nM |  | 5.35 nM | 2.51 nM
